Results on 4 molecules are retold here after patent publication US12344663B2, “Anti-C3 antibodies and antigen-binding fragments thereof and their uses for treating eye or ocular diseases” (CDR-Life AG, priority 2021, dated 2025).

The subject of one data set is Alternative Pathway. In words: WEISLAB Complement system Screen, alternative pathway MAC (C5b-C9) formation. The class given is biochemical, human. The note with it: single dose of 2 μM; AP-dependent MAC formation. As to the method:
(§1) To identify antibodies that block all 3 complement pathways, antibodies are screened using an enzyme immunoassay for the qualitative determination of functional classical, lectin and alternative complement pathways in human serum using the WEISLAB® Complement system Screen (Svar Life Science AB, Malmö, Sweden).
(§2) To monitor inhibition of the complement system in human serum, the scFv of the invention or the comparator molecules are tested using an enzyme immunoassay for the qualitative determination of functional classical, lectin and alternative complement pathways in human serum using the WEISLAB® Complement system Screen (Svar Life Science AB, Malmö, Sweden), following the supplier's instructions. The amount of C5b-C9 neoantigen generated is proportional to the functional activity of complement pathways. The scFv of the invention and the comparator molecules are tested in a concentration response curve and the IC50 for the inhibition is calculated using the GraphPadPrism software and a non-linear, 4 parameters curve regression.

In a further data set the test system is Lectin Pathway. Description: WEISLAB Complement system Screen, lectin pathway MAC (C5b-C9) formation. The class given is biochemical, human. The following applies: single dose of 2 μM; LP-dependent MAC formation. How it is done:
as §1, §2

The next data set deals with Classical Pathway. In words: WEISLAB Complement system Screen, classical pathway MAC (C5b-C9) formation. The class given is biochemical, human. The following applies: single dose of 2 μM; CP-dependent MAC formation. As to the method:
as §1, §2

Data set [1] is described as follows: Concentration-dependent monomeric stability study at 37° C. The class given is physicochemical. The following applies: for Loss in monomeric content after 2 weeks of incubation at 37° C.: Clone XIII at 150 mg/mL, Clone XIV at 50 mg/mL; for Loss in monomeric content with concentration: Clone XIII concentrated to 150 mg/mL, Clone XIV to 50 mg/mL.
The nature of data set [2]: Thermal stability by differential scanning fluorimetry (DSF). The class given is physicochemical. The following applies: DSF, Example 4. An excerpt: Differential scanning fluorimetry (DSF) measures protein unfolding by monitory changes in fluorescence as a function of temperature.
The temperature of protein unfolding (Tm) is tied to the stability of antibodies, specifically to aggregation during storage and long-term stability of the therapeutic product. The thermal transitions of monoclonal antibody CH2 and CH3 domains are typically invariant for different antibodies within an isotype, with the CH2 domain unfolding prior to the CH3 domain.
On the technique in general: In DSF a fluorescence change marks the thermal transition of the protein.

The conditions of data set [3]: 40 nmol IVT, scFv versus Fab (ranibizumab); in words; cited from earlier work.

B1: Clone IV: rabbit-derived parental anti-C3 antibody, SEQ ID NO: 32 (protein)
chain: QSVKESGGRLVTPGTPLTLTCTVSGFSLYNYAMNWVRQAPGKGLEWIGIINTDGNTNYASWAKGRFTISTTSSTTVDLKITSPTTEDTATYFCPRAVGYHHHALDPWGPGTLVTVSSGGGGSGGGGSGGGGSGGGGASELVLTQSPSVSAALGASAKLTCTLSSAHKTYTIDWYQQQQGEAPRYLMQLKSDGSYTKGTGVPDRFSGSSSGADRYLIIPSVQADDEADYYCGTDYGGGYVFGGGTQLTVTG
modifications: scFv
Consider B1, for which the “Residual alternative pathway complement activity with Clone IV [%]” value in the data set with Alternative Pathway is given as −0.1 ± 0.2%. Also, in the data set with Lectin Pathway, the “Residual lectin pathway complement activity with Clone IV [%]” value amounted to 0.5 ± 0.9%. For the same molecule, in the data set on Classical Pathway, the “Residual classical pathway complement activity with Clone IV” value was found to be 2.9 ± 0.0%.

B2: Clone XIII: scFv combining affinity maturation substitutions and disulfide bond stabilization, SEQ ID NO: 41 (protein)
scFv: MQLVLTQSPSASASLGASVKLTCTLSSAHKTYTIDWYQQQPEKCPRYLMQLKSEGSYTKGTGVPDRFSGSSSGAERYLTISSLQSEDEADYYCGTEGVGGYVFGGGTKLTVLGGGGGSGGGGSGGGGSGGGGSQVQVVESGGGSVQPGRSLRLSCAVSGFSLYNYAMNWVRQAPGKGLEWIGIINVGGGTNYASWAKGRFTISTDNSKNTVYLQMNSLRAEDTASYYCARAVGYHHARLDPWGCGTSVTVSS
modifications: ScFv
Regarding B2, in data set [1], the “Loss in monomeric content after 2 weeks of incubation at 37° C.” value is recorded as 2.2% and the “Loss in monomeric content with concentration” value is “no loss”. Moreover, the Melting temperature in data set [2] is 67.7 °C.

B3: Clone XIV: scFv combining affinity maturation substitutions and disulfide bond stabilization, SEQ ID NO: 42 (protein)
scFv: MQLVLTQSPSASASLGASVKLTCTLSSAHKTYTIDWYQQQPEKCPRYLMQLKSEGSYTKGTGVPDRFSGSSSGAERYLTISSLQSEDEADYYCGTEGVGGYVFGGGTKLTVLGGGGGSGGGGSGGGGSGGGGSQVQVVESGGGSVQPGRSLRLSCAVSGFSLYNYAMNWVRQAPGKGLEWIGIINVGGGTNYASWAKGRFTISTDNSKNTVYLQMNSLRAEDTASYYCARAVGYHHSRLDPWGCGTSVTVSS
modifications: ScFv
In the case of B3, in data set [1], the “Loss in monomeric content after 2 weeks of incubation at 37° C.” value was found to be 2.3% and the “Loss in monomeric content with concentration” value worked out at 1.6%. In data set [2], this molecule registered a Melting temperature of 67.2 °C.

B4: Beovu: comparator in EpiMatrix table; brolucizumab is a scFv (antibody, chains of the INN, looked up, V domains shown)
VH: EVQLVESGGGLVQPGGSLRLSCTASGFSLTDYYYMTWVRQAPGKGLEWVGFIDPDDDPYYATWAKGRFTISRDNSKNTLYLQMNSLRAEDTAVYYCAGGDHNSGWGLDIWGQGTLVTVSS
VL: EIVMTQSPSTLSASVGDRVIITCQASEIIHSWLAWYQQKPGKAPKLLIYLASTLASGVPSRFSGSGSGAEFTLTISSLQPDDFATYYCQNVYLASTNGANFGQGTKLTVL
modifications: scFv
notes: brolucizumab is a scFv
On to B4, for which, in data set [3], the “Retinal penetration after equimolar intravitreal injection” value was “improved retinal penetration”.
